# Reference: patent US20150267232A1, “IN VIVO AND IN VITRO CARBENE INSERTION AND NITRENE TRANSFER REACTIONS CATALYZED BY HEME ENZYMES” (California Institute of Technology, priority 2012, published 2015)
# Substitutions are numbered along the chain they refer to. Names and notes keep the numbering of the source.
# B1: BM3-CIS: 9-10A TS + F87V, T268A (protein, listed as Bacillus megaterium)
# chain: TIKEMPQPKTFGELKNLPLLNTDKPVQALMKIADELGEIFKFEAPGRVTRYLSSQRLIKEACDESRFDKNLSQALKFARDFAGDGLVTSWTHEKNWKKAHNILLPSFSQQAMKGYHAMMVDIAVQLVQKWERLNADEHIEVSEDMTRLTLDTIGLCGFNYRFNSFYRDQPHPFIISMVRALDEVMNKLQRANPDDPAYDENKRQFQEDIKVMNDLVDKIIADRKARGEQSDDLLTQMLNGKDPETGEPLDDGNIRYQIITFLIAGHEATSGLLSFALYFLVKNPHVLQKVAEEAARVLVDPVPSYKQVKQLKYVGMVLNEALRLWPTAPAFSLYAKEDTVLGGEYPLEKGDEVMVLIPQLHRDKTVWGDDVEEFRPERFENPSAIPQHAFKPFGNGQRACIGQQFALHEATLVLGMMLKHFDFEDHTNYELDIKETLTLKPKGFVVKAKSKKIPLGGIPSPSTEQSAKKVRKKAENAHNTPLLVLYGSNMGTAEGTARDLADIAMSKGFAPQVATLDSHAGNLPREGAVLIVTASYNGHPPDNAKQFVDWLDQASADEVKGVRYSVFGCGDKNWATTYQKVPAFIDETLAAKGAENIADRGEADASDDFEGTYEEWREHMWSDVAAYFNLDIENSEDNKSTLSLQFVDSAADMPLAKMHGAFSTNVVASKELQQPGSARSTRHLEIELPKEASYQEGDHLGVIPRNYEGIVNRVTARFGLDASQQIRLEAEEEKLAHLPLAKTVSVEELLQYVELQDPVTRTQLRAMAAKTVCPPHKVELEALLEKQAYKEQVLAKRLTMLELLEKYPACEMKFSEFIALLPSIRPRYYSISSSPRVDEKQASITVSVVSGEAWSGYGEYKGIASNYLAELQEGDTITCFISTPQSEFTLPKDPETPLIMVGPGTGVAPFRGFVQARKQLKEQGQSLGEAHLYFGCRSPHEDYLYQEELENAQSEGIITLHTAFSRMPNQPKTYVQHVMEQDGKKLIELLDQGAHFYICGDGSQMAPAVEATLMKSYADVHQVSEADARLWLQQLEEKGRYAKDVWAG
# modifications: cytochrome P450NADPH-P-450 reductase precursor, cytochrome P450 (BM3), CYP102A1
# notes: 9-10A TS + F87V, T268A
# B2: H2-4-D4: 9-10A TS + F87V, L75A, M177A, L181A, T268A, L437A (protein, listed as Bacillus megaterium)
# chain: B1 chain with L75A, M177A, L181A, L437A
# modifications: cytochrome P450NADPH-P-450 reductase precursor, cytochrome P450 (BM3), CYP102A1
# notes: 9-10A TS + F87V, L75A, M177A, L181A, T268A, L437A
# B3: H2A10: 9-10A TS + F87V, L75A, L181A, T268A (protein, listed as Bacillus megaterium)
# chain: B1 chain with L75A, L181A
# modifications: cytochrome P450NADPH-P-450 reductase precursor, cytochrome P450 (BM3), CYP102A1
# notes: 9-10A TS + F87V, L75A, L181A, T268A
# Key:
# Assay type in all cases: biochemical
# [1] = Small-scale anaerobic C—H amination with purified enzymes, azide 1; details: catalyst loading 0.5 mol %; NADPH; anaerobic
# Description: Activities are presented in TTN. […] Yields and enantioselectivies determined by HPLC analysis. * (S−R)/(S+R). nd=not determined.
# Enzymes used as purified catalysts were expressed as previously described (Lewis, J. C. et al., Proc. Natl. Acad. Sci. U.S.A. 106, 16550-16555 (2009)), and were purified by anion-exchange chromatography (for holoenzymes) or Ni-NTA chromatography (for isolated heme domains). Concentrations of P450 or P411 enzymes were determined as previously reported (Omura, T. & Sato, R., J. Biol. Chem. 239, 2370-2378 (1964); Vatsis, K. P. et al., J. Inorg. Biochem. 91, 542-553 (2002)). Small-scale reactions (400 μL) were conducted in 2 mL crimp vials containing degassed buffer (0.1 M potassium phosphate pH 8.0), enzyme (0.1-0.5% catalyst loading) and oxygen depletion system (10× stock solution containing 14,000 U/mL catalase, 1,000 U/mL glucose oxidase dissolved in 0.1 M KPi pH 8.0). Enzyme (P450 or P411) solution and oxygen depletion mixture were added to the vial with a small stir bar before crimp-sealing. […] Reactions were stirred at room temperature for 24 h under positive argon pressure.
# Small-scale reactions (400 μL) were conducted in 2 mL crimp vials (Agilent Technologies, San Diego, Calif.) containing buffer (0.1 M potassium phosphate pH 8.0), enzyme (0.1-0.5% catalyst loading) and oxygen depletion system (10× stock solution containing 14,000 U/mL catalase, 1,000 U/mL glucose oxidase dissolved in 0.1 M KPi pH 8.0). Enzyme (P450 or P411) solution and oxygen depletion mixture were added to the vial with a small stir bar before crimp-sealing. […] In the meantime, the headspace of the sealed 2 mL reaction vial with the P450 solution was made anaerobic by flushing argon over the protein solution (with no bubbling). The buffer/reductant/glucose solution (270 μL) was syringed into the reaction vial with continuous argon purge of the vial headspace. An arylsulfonyl azide solution in DMSO (10 μL, 80 mM) was added to the reaction vial via a glass syringe, and the reaction was left stirring for 24 h at room temperature under positive argon pressure. […] Reactions were quenched by adding 30 μL 3 M HCl under argon. To the vials were then added acetonitrile (430 uL) and internal standard (o-toluenesulfonamide 10 mM in 50% acetonitrile 50% water, 1 mM final concentration). This mixture was then transferred to a microcentrifuge tube, and centrifuged at 17,000×g for 10 minutes. A portion (20 μL) of the supernatant was then analyzed by HPLC. For LC-MS analysis, the quenched reaction mixture was extracted twice with ethyl acetate (2×350 μL), dried under a light argon stream and resuspended in 50% water-acetonitrile (100 μL). For chiral HPLC the reactions were extracted as above with ethyl acetate, dried and resuspended in DMSO (100 μL) and then C18 purified as described above. The C18 purified material was dried, and resuspended in acetonitrile, and then injected onto the chiral HPLC system for analysis. Sultam formation was quantified comparison of integrated peak areas of internal standard and sultam at 220 nm to a calibration curve made using synthetically produced sultam and internal standard.
# Purified enzymes were screened for activity in small scale reactions (400 μL) under anaerobic conditions as described above. Reactions were carried out using 0.5% mol of enzyme (10 μM) with respect to the triethylsulfonyl azide substrate 1 (2 mM). Standard reaction conditions described above were employed. Diethyl benzosultam product 3 (FIG. 18) was analyzed and quantified by reversed-phase HPLC (see above).
# Small-scale reactions (400 μL total volume) were set up and worked up. Control reactions were performed with both the holoenzyme (BM3 with covalently linked reductase domain) and the isolated heme domain. […] Reactions of the complete system with heme domain (CS heme) included 2 mM Na2S2O4 rather than NADPH unless otherwise indicated in the table. […]
# [2] = N—H insertion, aniline with ethyl diazo acetate (EDA); details: protein 10 uM, EDA 8.5 mM, aniline 20 mM, Na2S2O4 10 mM, 12 h; for % Yield: product 4.3
# Excerpt: We have found a variety of P450 variants to be general catalysts for carbenoid N—H insertion. We combined aniline with EDA in the presence of a reductant (Na2S2O4) under argon atmosphere and tested the mixture with seven P450BM3 variants previously identified as competent catalysts for cyclopropanation (Coelho, P. et al., Science. 2013, 339, 307-310). In choosing this set of P450s, we hypothesized that cyclopropanation activity could correlate with ability to generate the iron-carbenoid intermediate that is also necessary for N—H insertion. Whereas wild type BM3 (WT-BM3 (SEQ ID NO:1), Table 20, entry 1) provided only trace amounts of the desired product (4.3), a few variants gave 4.3 in good yields after 12 h at room temperature. In particular, variant H2-5-F10 which is derived from a thermostable P450BM3 lineage (Lewis, J. C. et al. ChemBioChem, 2010, 11, 2502-2505) and contains 15 mutation from WT-BM3 (SEQ ID NO:1), formed 4.3 in 47% yield and 473 turnovers (TTN) using 0.1% protein relative to EDA (entry 7). […] In contrast, when 1 mol % of the isolated hemin prosthetic group was used as catalyst, the single and double insertion products were produced in a 3.5 to 1 ratio (with a total product yield of 51%).
# A representative procedure for P450-catalyzed N—H insertion is as follows. To an unsealed crimp vial, 60 μL of a P450 solution (67 or 133 μM) was added and the vial was sealed. A 12.5 mM solution of sodium dithionite in phosphate buffer (0.1 M, pH=8.0) was degassed by bubbling with argon in a 6 mL crimp-sealed vial. The headspace of the 2 mL vials containing P450 solution were flushed with argon (no bubbling). The buffer/dithionite solution (360 μL) was then added to each reaction vial via syringe, and the gas lines were disconnected from the vials. 10 μL of an 800 mM stock of aniline was added via a glass syringe, followed by 10 μL of a 340 mM stock of EDA (both stocks in MeOH). The reaction vials were then placed in a tray on a plate shaker and left to shake at 40 rpm. The final concentrations of the reagents were typically: 20 mM aniline, 8.5 mM EDA, 10 mM Na2S2O4, and 10 or 20 μM P450. After 12 h at 25° C., the vials were removed from the shaker and uncapped and 1 mL of cyclohexane was added, followed by 20 μL of a 20 mM solution of phenethyl alcohol (internal standard). The mixture was transferred to a 1.5 mL Eppendorf tube and vortexed and centrifuged (13,000×g, 1 min.). The organic layer was dried over sodium sulfate if necessary then analyzed by GC, with comparison to an authentically prepared sample that has been verified by proton NMR ([…], Varian, CDCl3).
# Substitution is well-tolerated on the aniline partner on both the ortho and para positions. Reactions were analyzed by a Shimadzu GC with FID detector and J&W HP-5 column (30 m×0.32 mm, 0.25 μm film) and calibrated to an independently prepared sample of each product using phenethyl alcohol as internal standard. Reaction of aniline and EDA was also performed in milligram scale without any organic cosolvent to provide 4.3 in 65% isolated yield.
# Calibration curves were plotted as follows. Yields of N—H insertion products were determined using calibration curves made with independently synthesized standards that have been verified by proton NMR, with comparison to known literature data (Baumann, L. K. et al. Organometallics. 2007, 26, 3995-4002; Anding, B. J. et al. Organometallics. 2013, 32, 2599-2607). Two stock solutions of product were made at 160 mM and 40 mM. To four or five samples containing 380 μL of buffer, product was added from either of the stock solutions such at a final concentration of 0.5-8.0 mM in 400 μL was obtained. 20 μL of internal standard was added to each eppendorf tube, then 1 mL of cyclohexane was added and the tubes were vortexed and centrifuged (13,000 ×g, 30 seconds). The organic layer was then analyzed by GC. The ratio of the areas under the internal standard and product peaks were plotted against the concentration for each solution. […]
# [3] = P450BM3 compilation plate screen (GC, cyclopropane peaks); details: P450BM3 variants; for ee (cis): (R,S)-(S,R), chiral β-CDX GC; for de: diastereomeric excess = ([cis] − [trans])/([cis] + [trans]); for Absolute activity: sum of the area of the cyclopropane peaks over the area of the internal standard
molecule,measurement,setting,value
B1,TTN (C—H amination product 3),[1],9
same,TTn,[2],363
same,% Yield,[2],36%
B2,ee (cis),[3],−84
same,de,[3],57
same,Absolute activity,[3],0.05244
same,TTn,[2],340
same,% Yield,[2],34%
B3,ee (cis),[3],−94
same,de,[3],−8
same,Absolute activity,[3],0.06642
same,TTn,[2],238
same,% Yield,[2],24%
